B1: HDV Ribozyme (parent)
chain: GGCCGGCAUGGUCCCAGCCUCCUCGCUGGCGCCGGCUGGGCAACAUUCCGAGGGGACCGUCCCCUCGGUAAUGGCGAAUGGGACCCA

Variants of: B1
Assay: self-cleavage, relative activity (ratio to wild type); higher = more cleavage; co-transcriptional

| Variant | self-cleavage |
| --- | --- |
| GGCCGGCAUGGUCCCAGCCUCCUCGCUGGCGCCGGCUGGGCAACAUUCCGAGGGGACUAUCCCCUCGGUAAUGGCGAAUGGGACCCA | 1.12 |
| GGCCGGCAUGGUCCCAGCCUCCUCGCUGGCGCCGGCUGGGCAACAUUCCGAGGGGACCGUCCCCUCGGUAGUGGCGAAUGGGUCCCA | 0.323 |
| GGCCGGCAAGGUCCCAGCCUCCUCGCUGGCGCCGGCUGGGCAACAUUCCGAGGGGACCGUACCCUCGGUAAUGGCGAAUGGGACCCA | 1.16 |
| GGCCGGCAUGGUCCCAGCCUCCUCGCUCGCGUCGGCUGGGCAACAUUCCGAGGGGACCGUCCCCUCGGUAAUGGCGAAUGGGACCCA | 0.19 |
| GGCCGGCAUGAUCCCAGCUUCCUCGCUGGCGCCGGCUGGGCAACAUUCCGAGGGGACCGUCCCCUCGGUAAUGGCGAAUGGGACCCA | 0.073 |
| GGCCGGCAUGGUUCCAGCCUCCUCGCUGGCGCCGGCUGGGCAACAGUCCGAGGGGACCGUCCCCUCGGUAAUGGCGAAUGGGACCCA | 0.356 |
| GGCCGGCAUGGUCCCAGCCUCCUCGCUGGCGCCGGCUGGGCAACAUUCCGAGAGGACCGUCCCCUCGGUAAUGGCGUAUGGGACCCA | 0.483 |
| GGCCGGCACGGUCCCAGCCUCCUCGCUGGCGCCGGCUGGGCAACAUUCCGAGGGGACCGUGCCCUCGGUAAUGGCGAAUGGGACCCA | 0.755 |
| GGCCGGCAUGGUCCCAGGCUCCUCGCUGGCGCCGGCUGGGCAACAUUCCGAGGGGAACGUCCCCUCGGUAAUGGCGAAUGGGACCCA | 0.0536 |
| GGCCGGCAUGGUCCCAGCCUCCUCGCUGGCGCCGGUUGGGCAACAAUCCGAGGGGACCGUCCCCUCGGUAAUGGCGAAUGGGACCCA | 0.462 |
| GGCCGGCAUGGUCCCAGCCUCAUCGCUGGCGCCGGCUGGGCAACAUUCCGAGGGGACCGUCCCCUCGGUAAUGGCGAAUGCGACCCA | 0.128 |
| GGCCGUCAUGGUCCCAGCCUCCUCGCUGGCGCCGGCUGGGCAACAUUCCGAGGGGAACGUCCCCUCGGUAAUGGCGAAUGGGACCCA | 0.623 |
| GGCCGGGAUGGUACCAGCCUCCUCGCUGGCGCCGGCUGGGCAACAUUCCGAGGGGACCGUCCCCUCGGUAAUGGCGAAUGGGACCCA | 0 |
| GGCCGGCAUGGUCCCAGCCUCCGCGCUGGCGCCGGCUGGGCAACAGUCCGAGGGGACCGUCCCCUCGGUAAUGGCGAAUGGGACCCA | 0.356 |
| GGCCGGCAUGUUCCCAGCCUCCUCGCUGGCGCCGGCUGGGCAACAUUCCGAGGGGACCGUCCCCUCGGUAAUGGCGAUUGGGACCCA | 0.0755 |
| GGCCGGCCUGGUCCCAGCCUCCUCGCUGGCGCCGGCUGGGCAACAUUCCGAGGGGACCGUCCCCUAGGUAAUGGCGAAUGGGACCCA | 0.831 |
| GGCCUGCAUGGUCCCAGCCUCCUCGCUGGCGCCGGCUGCGCAACAUUCCGAGGGGACCGUCCCCUCGGUAAUGGCGAAUGGGACCCA | 0.26 |
| UGCCGGCAUGGUCCCAGCCUCCUCCCUGGCGCCGGCUGGGCAACAUUCCGAGGGGACCGUCCCCUCGGUAAUGGCGAAUGGGACCCA | 0.17 |
| GGCCGGCAGGGUCCCAGCCUCCUCGCUGGCGCCGGCUGGGCAACAUUCCGAGGGGACCGUCCCCUCGGUAAUGGCGAAUGGGACCCC | 0.969 |
| GGCCGGCAUGGUUCCAGCCUCCUCGCUGACGCCGGCUGGGCAACAUUCCGAGGGGACCGUCCCCUCGGUAAUGGCGAAUGGGACCCA | 0.104 |
| GGCCGGCAUGGUCCCAGCCUCCUCGCUGGCGCCAGCUGGGCAACAUUCCGAGGAGACCGUCCCCUCGGUAAUGGCGAAUGGGACCCA | 0.16 |
| GGCCGGCAUGGUCCCAGCCUCCUCGCUGGCGCCGGCUGGGCAACAUUCCGAGGGGACCGUCCGCUCGGCAAUGGCGAAUGGGACCCA | 0.567 |

| Variant | self-cleavage |
| --- | --- |
| GGCCGGCAUGGUCCCAGCCGCCUCGCUGGCGCCGGCUGGGCAACAUUCCGAGGGGACCGUCCCCUCGGUAAUGCCGAAUGGGACCCA | 0.0489 |
| GGCCGGCAUGGUCCCAGCCCCCUCGCUGGCGCCGGCUGGGCAACAUUCCGAGGGGACCGUCCCCUUGGUAAUGGCGAAUGGGACCCA | 0.0831 |
| GGCCGGCAUGGUCCCAGCCUCCUCGCUGGCGCCGGCUAGGCAACAUUCCCAGGGGACCGUCCCCUCGGUAAUGGCGAAUGGGACCCA | 0.0831 |
| GGCCGGCAUGGGCCCAGCCUCCUCGCUGGCGCCGGCUGGGCAACAUUCCGAGGGGACCGUCCACUCGGUAAUGGCGAAUGGGACCCA | 0.712 |
| GGCCGGCAUGGUCCCAGCGUCCUCGCUGGCGCCGGCUGCGCAACAUUCCGAGGGGACCGUCCCCUCGGUAAUGGCGAAUGGGACCCA | 0.0978 |
| GGCCGGCAUGGUCCCAGCCUACUCGCUGGCGCCGGCUGGGCAACAAUCCGAGGGGACCGUCCCCUCGGUAAUGGCGAAUGGGACCCA | 0.322 |
| GGCCGGCAUGGUCCCAGCCUCCUCACUGGCGCCGGCUGGGCAACAUUCCGAGGGGACCGUCCCCUCGGUAAUGGCGAAUGGGACCCU | 0.277 |
| GGCCGGCAUGGUCCCAGCCUCCUCGCUGGCGCCGGCUGGGCAACAUUCCGAGGGGACCGUCCCGUCGGUAAUGGCGCAUGGGACCCA | 0.431 |
| GGCCGGCAUGGUCCCAGCCUCCUCGCUGGCGCCGGCUGGGCAACAUUCCGAGGGGACCGUCACCUCGGUAAUGGCUAAUGGGACCCA | 1.08 |
| GGCCGGCAUGCUCCCAGCCCCCUCGCUGGCGCCGGCUGGGCAACAUUCCGAGGGGACCGUCCCCUCGGUAAUGGCGAAUGGGACCCA | 0.0437 |
| GGCCGGCAUGGUCCCAGCCUCCUCGCUGGCGCCGGCUGAGCAACAUUCCGAGGGGACCGUCCCCUCGGUAAUGGCGAAUGGGACACA | 0.332 |
| GGCCGGCAUGGUCCCAGCAUCCUCGCAGGCGCCGGCUGGGCAACAUUCCGAGGGGACCGUCCCCUCGGUAAUGGCGAAUGGGACCCA | 0.312 |
| GGCCGGCAUGGUCCCAGCCUCCUCGCUGGCGCCGGCUGGGCAACAUUCAGAGGGGACCGUCUCCUCGGUAAUGGCGAAUGGGACCCA | 0.933 |
| GGCCGGCAUGGUCCCAGCCUCCUCGCUGGCGCCGGCUGGGCAACAUUCCGAGGGGACCGUCCCCUCGGUAAUAGCGGAUGGGACCCA | 0.386 |
| GGCCGGCAUGGUCCCAGCCUCCUCGCUGGCGCCGGCUGCGCAACAUUCCGAGGGGACCGUCCCCUCGGUAAUGGCGAGUGGGACCCA | 0.0573 |
| GGCCGGCAUGGCCCCAGCCUCCUCGCUGGCGCUGGCUGGGCAACAUUCCGAGGGGACCGUCCCCUCGGUAAUGGCGAAUGGGACCCA | 0.32 |
| GGCCGGCAUGGUCCCAGCCUCCUCGCUGGCCCCGGCUGGGCAACAUUCCGAAGGGACCGUCCCCUCGGUAAUGGCGAAUGGGACCCA | 0.234 |
| GGCCCGCAUGGUCCCAGCCUCCUCGCUGGCGCCGGCUGGGCAACAUUCCGAGGGGACCGUCCCCUCGGUAAUGGCGAAGGGGACCCA | 0 |
| GGCCGGCAUGGUCCCAGCCUCCUCGCUGGCGCCGGCUCGGCAACAUUCCGAGGUGACCGUCCCCUCGGUAAUGGCGAAUGGGACCCA | 0.185 |
| GGCCGGCAUGGUCCCAGCCUCCUCGCUGGCGCCGGCUGUGCAACAUUCCGAGGGGACCGUCCCCUCGGUAAUGGCGAAUGUGACCCA | 0.185 |
| GGCCGGCAUGGUCCCAGCCUCCUCGCUGGCGCCGGCUGGGCAACAUACCGAGGGGACCGUACCCUCGGUAAUGGCGAAUGGGACCCA | 0.886 |
| GGCCGGCAUGGUCCCAGCCUCCUCGCUGGCGCCGGCUGGGCAACAUUCCCAGGGAACCGUCCCCUCGGUAAUGGCGAAUGGGACCCA | 0.959 |

| Variant | self-cleavage |
| --- | --- |
| GGCCGGCAUGGUCCCAGCCUCCUCGCUGGCGCCGGCUGGCCAACAUUCCGAGGGGACCGUCCCCUCGGUACUGGCGAAUGGGACCCA | 0.121 |
| GGCCGGGAUGGUCCCAGCCUCCUCGCUGGCGCCGGCUGGGCAACGUUCCGAGGGGACCGUCCCCUCGGUAAUGGCGAAUGGGACCCA | 0.217 |
| GGCCGGCAUGGUCCCAGCCUCCUCGCUGGCGCCGGCUGGGCAACAUUGCGAGGGGACGGUCCCCUCGGUAAUGGCGAAUGGGACCCA | 1.11 |
| GGCCGGCAUGGUCCCAGCCUCCUCGCUGGCGCCGGCUGCGCAACAUUCCGAGGGGACCGUCCCCUCAGUAAUGGCGAAUGGGACCCA | 0.134 |
| GGCCGGCAUCGUCCCAGCCUCCUCGCUGGCGCCGGCUGGGCAACAUUCCGAGGGGACCGUCCCCUCGGUAAUGGCGAAUGGGAACCA | 0.705 |
| GGCCGGCAUGGUCCCAGCCACCUCGCUGGCGCCGGCUGGGCAACAUUCCGAGGGGUCCGUCCCCUCGGUAAUGGCGAAUGGGACCCA | 0.0519 |
| GGCCGGCAUGGUCCCAGCCUCCUCGCUGUCGCCGGCUGGGCAACAUUCAGAGGGGACCGUCCCCUCGGUAAUGGCGAAUGGGACCCA | 0.111 |
| GGCCGGCAUGGUCCCAGCCUCCUCGCUGGCCCCGGCUGGGCAACAUUCCGAGGGGACCGUCCCCUCGGUAAUGGCGAAUGCGACCCA | 0.194 |
| GGCCGGCAUGGUCCCAGCCUCCUCGAUUGCGCCGGCUGGGCAACAUUCCGAGGGGACCGUCCCCUCGGUAAUGGCGAAUGGGACCCA | 0.222 |
| GGCCGGCAUGGUCCCAGCCUCCUCGCUGGCGCCGGCUGAGCAAAAUUCCGAGGGGACCGUCCCCUCGGUAAUGGCGAAUGGGACCCA | 0.0405 |
| GGCCGUCAUGGUCCCAGCCUCCUCGCUGGCGCCGGCUGGGCAACAUUCCGAGGGGACCGUCCCCUCGGUAAGGGCGAAUGGGACCCA | 0.133 |
| GGCCGGCAUGGUCCCAGCCUCCUCGCUGGCGCCGGCUGGGCAACAUUCCGUGGGGACCGUCCCCUCGGUAAUGGCGAAAGGGACCCA | 1.09 |
| GGCCUGCAUGGUCCCAGCCUUCUCGCUGGCGCCGGCUGGGCAACAUUCCGAGGGGACCGUCCCCUCGGUAAUGGCGAAUGGGACCCA | 0.0462 |
| AGCCGGCAUGGUCCCAGCCUCCUCGCUCGCGCCGGCUGGGCAACAUUCCGAGGGGACCGUCCCCUCGGUAAUGGCGAAUGGGACCCA | 0.219 |
| GGCCGGCAUGGUCCCAGCCUCCUCGCUCGCGCCAGCUGGGCAACAUUCCGAGGGGACCGUCCCCUCGGUAAUGGCGAAUGGGACCCA | 0.146 |
| GGCCGGCGUGGUCCCAGCUUCCUCGCUGGCGCCGGCUGGGCAACAUUCCGAGGGGACCGUCCCCUCGGUAAUGGCGAAUGGGACCCA | 0.104 |
| GGCCGGCAUGGUCCCAGCCUCCUCGCUGGCGCCGGCUGGGCAACAGUCCGAGGGGACCGUCCCCUCGGCAAUGGCGAAUGGGACCCA | 0.582 |
| GGCCGGCAUGGUCCCAGCCUCCUCGCUGGGGCCGGCUGGGCAACAUUCCGAGGGGACCGUCCCCUCGGUAAUGGCGAAUGGGACCCC | 0.122 |
| GGCGGGCAUGGUCCCAGCCUCCUCGCUGGCGCCGGCUGGGCAACAUUCCGAGGGGACCGUCCCCUCGGUAUUGGCGAAUGGGACCCA | 0.156 |
| GGCCGGCAUGGUACCAGCCUCUUCGCUGGCGCCGGCUGGGCAACAUUCCGAGGGGACCGUCCCCUCGGUAAUGGCGAAUGGGACCCA | 0.0583 |
